T1: EsCas13d, nuclease-dead (Eubacterium siraeum, UniProt B0MS50, R295A;H300A;R849A;H854A)
T1 sequence: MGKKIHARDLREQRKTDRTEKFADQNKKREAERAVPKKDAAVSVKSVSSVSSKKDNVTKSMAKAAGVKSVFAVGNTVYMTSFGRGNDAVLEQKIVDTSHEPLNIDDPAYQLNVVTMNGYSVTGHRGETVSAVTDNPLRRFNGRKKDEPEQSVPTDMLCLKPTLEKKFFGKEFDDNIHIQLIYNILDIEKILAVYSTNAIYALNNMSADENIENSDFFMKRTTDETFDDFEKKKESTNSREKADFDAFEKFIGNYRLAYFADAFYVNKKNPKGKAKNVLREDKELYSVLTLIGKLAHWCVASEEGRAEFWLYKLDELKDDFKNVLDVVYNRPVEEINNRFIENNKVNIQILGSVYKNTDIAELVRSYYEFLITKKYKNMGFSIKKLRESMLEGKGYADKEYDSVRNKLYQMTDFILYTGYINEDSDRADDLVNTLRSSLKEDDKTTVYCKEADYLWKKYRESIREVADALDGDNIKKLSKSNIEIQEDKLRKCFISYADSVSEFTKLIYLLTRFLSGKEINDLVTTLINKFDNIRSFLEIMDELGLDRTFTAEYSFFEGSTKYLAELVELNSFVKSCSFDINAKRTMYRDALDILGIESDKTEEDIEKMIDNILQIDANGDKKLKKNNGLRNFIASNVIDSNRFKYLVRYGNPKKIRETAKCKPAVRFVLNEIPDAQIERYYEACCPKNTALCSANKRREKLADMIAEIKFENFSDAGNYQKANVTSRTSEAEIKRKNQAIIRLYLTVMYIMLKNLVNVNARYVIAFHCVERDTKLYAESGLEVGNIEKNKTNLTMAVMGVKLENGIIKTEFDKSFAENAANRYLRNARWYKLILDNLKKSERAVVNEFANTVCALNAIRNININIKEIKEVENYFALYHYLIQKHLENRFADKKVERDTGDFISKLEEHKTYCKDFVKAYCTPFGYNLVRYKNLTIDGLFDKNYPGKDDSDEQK

B1: target 1 A1U,C21U (mixed)
RNA 1: CACCCGUGCAAAAAUGCAGGGGUCUAAAACUGAGCGGAUAACCUCUCUAUGG
RNA 2: GGGAAUGGAUCCACAUCUACGAAUUCGUACUAUAGAGAGGUUAUCCGCUCUCCGAGAUCGGAAGAGCACACGU
B2: target 1 C7U,C22A (mixed)
RNA 1: CACCCGUGCAAAAAUGCAGGGGUCUAAAACUGAGCGGAUAACCUCUCUAUGG
RNA 2: GGGAAUGGAUCCACAUCUACGAAUUCGUAACAUAGAGAGGUUAUUCGCUCACCGAGAUCGGAAGAGCACACGU
B3: target 1 insC 3' of 14,insA 3' of 3 (mixed)
RNA 1: CACCCGUGCAAAAAUGCAGGGGUCUAAAACUGAGCGGAUAACCUCUCUAUGG
RNA 2: GGGAAUGGAUCCACAUCUACGAAUUCGUACCAUAGAGACGGUUAUCCGCUACACCGAGAUCGGAAGAGCACACGU
B4: target 1 insC 3' of 10,insA 3' of 2 (mixed)
RNA 1: CACCCGUGCAAAAAUGCAGGGGUCUAAAACUGAGCGGAUAACCUCUCUAUGG
RNA 2: GGGAAUGGAUCCACAUCUACGAAUUCGUACCAUAGAGAGGUUCAUCCGCUCAACCGAGAUCGGAAGAGCACACGU
B5: target 1 insC 3' of 10,insU 3' of 9 (mixed)
RNA 1: CACCCGUGCAAAAAUGCAGGGGUCUAAAACUGAGCGGAUAACCUCUCUAUGG
RNA 2: GGGAAUGGAUCCACAUCUACGAAUUCGUACCAUAGAGAGGUUCAUUCCGCUCACCGAGAUCGGAAGAGCACACGU
B6: target 1 A1G,C21U (mixed)
RNA 1: CACCCGUGCAAAAAUGCAGGGGUCUAAAACUGAGCGGAUAACCUCUCUAUGG
RNA 2: GGGAAUGGAUCCACAUCUACGAAUUCGUACUAUAGAGAGGUUAUCCGCUCGCCGAGAUCGGAAGAGCACACGU
B7: target 1 insG 3' of 6,insG 3' of 6 (mixed)
RNA 1: CACCCGUGCAAAAAUGCAGGGGUCUAAAACUGAGCGGAUAACCUCUCUAUGG
RNA 2: GGGAAUGGAUCCACAUCUACGAAUUCGUACCAUAGAGAGGUUAUCCGGGCUCACCGAGAUCGGAAGAGCACACGU
B8: target 1 A1C,C21U (mixed)
RNA 1: CACCCGUGCAAAAAUGCAGGGGUCUAAAACUGAGCGGAUAACCUCUCUAUGG
RNA 2: GGGAAUGGAUCCACAUCUACGAAUUCGUACUAUAGAGAGGUUAUCCGCUCCCCGAGAUCGGAAGAGCACACGU
B9: target 1 complement block 6-14 (mixed)
RNA 1: CACCCGUGCAAAAAUGCAGGGGUCUAAAACUGAGCGGAUAACCUCUCUAUGG
RNA 2: GGGAAUGGAUCCACAUCUACGAAUUCGUACCAUAGAGUCCAAUAGGGCUCACCGAGAUCGGAAGAGCACACGU
B10: target 1 C4U,U10A (mixed)
RNA 1: CACCCGUGCAAAAAUGCAGGGGUCUAAAACUGAGCGGAUAACCUCUCUAUGG
RNA 2: GGGAAUGGAUCCACAUCUACGAAUUCGUACCAUAGAGAGGUAAUCCGUUCACCGAGAUCGGAAGAGCACACGU
B11: target 1 A1C,G17U (mixed)
RNA 1: CACCCGUGCAAAAAUGCAGGGGUCUAAAACUGAGCGGAUAACCUCUCUAUGG
RNA 2: GGGAAUGGAUCCACAUCUACGAAUUCGUACCAUAUAGAGGUUAUCCGCUCCCCGAGAUCGGAAGAGCACACGU
B12: target 1 C2G,G12C (mixed)
RNA 1: CACCCGUGCAAAAAUGCAGGGGUCUAAAACUGAGCGGAUAACCUCUCUAUGG
RNA 2: GGGAAUGGAUCCACAUCUACGAAUUCGUACCAUAGAGAGCUUAUCCGCUGACCGAGAUCGGAAGAGCACACGU
B13: target 1 G17U (mixed)
RNA 1: CACCCGUGCAAAAAUGCAGGGGUCUAAAACUGAGCGGAUAACCUCUCUAUGG
RNA 2: GGGAAUGGAUCCACAUCUACGAAUUCGUACCAUAUAGAGGUUAUCCGCUCACCGAGAUCGGAAGAGCACACGU
B14: target 1 insC 3' of 10,insC 3' of 1 (mixed)
RNA 1: CACCCGUGCAAAAAUGCAGGGGUCUAAAACUGAGCGGAUAACCUCUCUAUGG
RNA 2: GGGAAUGGAUCCACAUCUACGAAUUCGUACCAUAGAGAGGUUCAUCCGCUCACCCGAGAUCGGAAGAGCACACGU
B15: target 1 insC 3' of 10,insU 3' of 1 (mixed)
RNA 1: CACCCGUGCAAAAAUGCAGGGGUCUAAAACUGAGCGGAUAACCUCUCUAUGG
RNA 2: GGGAAUGGAUCCACAUCUACGAAUUCGUACCAUAGAGAGGUUCAUCCGCUCAUCCGAGAUCGGAAGAGCACACGU
B16: target 1 insC 3' of 10,insG 3' of 1 (mixed)
RNA 1: CACCCGUGCAAAAAUGCAGGGGUCUAAAACUGAGCGGAUAACCUCUCUAUGG
RNA 2: GGGAAUGGAUCCACAUCUACGAAUUCGUACCAUAGAGAGGUUCAUCCGCUCAGCCGAGAUCGGAAGAGCACACGU
B17: target 1 insU 3' of 9,insG 3' of 4 (mixed)
RNA 1: CACCCGUGCAAAAAUGCAGGGGUCUAAAACUGAGCGGAUAACCUCUCUAUGG
RNA 2: GGGAAUGGAUCCACAUCUACGAAUUCGUACCAUAGAGAGGUUAUUCCGCGUCACCGAGAUCGGAAGAGCACACGU
B18: target 1 insA 3' of 5,insA 3' of 3 (mixed)
RNA 1: CACCCGUGCAAAAAUGCAGGGGUCUAAAACUGAGCGGAUAACCUCUCUAUGG
RNA 2: GGGAAUGGAUCCACAUCUACGAAUUCGUACCAUAGAGAGGUUAUCCGACUACACCGAGAUCGGAAGAGCACACGU
B19: target 1 insC 3' of 8,insA 3' of 3 (mixed)
RNA 1: CACCCGUGCAAAAAUGCAGGGGUCUAAAACUGAGCGGAUAACCUCUCUAUGG
RNA 2: GGGAAUGGAUCCACAUCUACGAAUUCGUACCAUAGAGAGGUUAUCCCGCUACACCGAGAUCGGAAGAGCACACGU
B20: target 1 insU 3' of 15,insU 3' of 14 (mixed)
RNA 1: CACCCGUGCAAAAAUGCAGGGGUCUAAAACUGAGCGGAUAACCUCUCUAUGG
RNA 2: GGGAAUGGAUCCACAUCUACGAAUUCGUACCAUAGAGUAUGGUUAUCCGCUCACCGAGAUCGGAAGAGCACACGU
B21: target 1 C6U,U11A (mixed)
RNA 1: CACCCGUGCAAAAAUGCAGGGGUCUAAAACUGAGCGGAUAACCUCUCUAUGG
RNA 2: GGGAAUGGAUCCACAUCUACGAAUUCGUACCAUAGAGAGGAUAUCUGCUCACCGAGAUCGGAAGAGCACACGU
B22: target 1 insG 3' of 18,insG 3' of 7 (mixed)
RNA 1: CACCCGUGCAAAAAUGCAGGGGUCUAAAACUGAGCGGAUAACCUCUCUAUGG
RNA 2: GGGAAUGGAUCCACAUCUACGAAUUCGUACCAUAGGAGAGGUUAUCGCGCUCACCGAGAUCGGAAGAGCACACGU
B23: target 1 C21U (mixed)
RNA 1: CACCCGUGCAAAAAUGCAGGGGUCUAAAACUGAGCGGAUAACCUCUCUAUGG
RNA 2: GGGAAUGGAUCCACAUCUACGAAUUCGUACUAUAGAGAGGUUAUCCGCUCACCGAGAUCGGAAGAGCACACGU

From PMC10786891, “Massively parallel profiling of RNA-targeting CRISPR-Cas13d” come the findings set out here.

The series deals with T1, EsCas13d, nuclease-dead. Nature of the series: crRNA (strand 1, pre-loaded); Mg2+; 40 mM Tris-HCl pH 7.5, 150 mM NaCl, 6 mM MgCl2, 1 mM DTT, 0.1% Tween-20, 0.2 mg/ml BSA; 25 C; 10 min per concentration, then washed. Particulars: tags: His6-TwinStrep-SUMO cleaved; N-terminal SNAP kept (SNAP-Surface 488); label: 3' end held by stalled T7 RNA polymerase.
In general, Kd refers to the equilibrium constant for the complex coming apart. A high value points to weaker binding. In turn, B1 came in with a dissociation constant (Kd) of 7.6 ± 0.4 nM.
With B2 the figure was 11 ± 0.5 nM; with B3, 24.8 ± 1.9 nM.
In the case of B4 it was 19.4 ± 2.4 nM; in that of B5, 66 ± 27 nM; in that of B6, 6.38 ± 0.24 nM.
With B7 the figure was 11.4 ± 0.5 nM; with B8, 13 ± 4 nM.
Consider B9, for which the Kd is 69 ± 27 nM.
B10 showed a Kd of 47 ± 15 nM.
Molecule B11 yielded a Kd of 34 ± 9 nM.
With B12 the figure was 8.4 ± 0.8 nM.
In the case of B13 it was 17 ± 1.3 nM; in that of B14, 13.5 ± 1 nM.
In the case of B15 it was 26 ± 4 nM; in that of B16, 15.5 ± 1.4 nM.
Molecule B17 had a dissociation constant (Kd) of 13.6 ± 2.1 nM.
With B18 the figure was 6.8 ± 0.6 nM; with B19, 11.8 ± 0.7 nM.
With B20 the figure was 53 ± 4 nM; with B21, 38.2 ± 2.4 nM; with B22, 34.9 ± 3 nM.
B23 returned an equilibrium dissociation constant (Kd) of 6.47 ± 0.24 nM.
